# Assay results taken from US20230068663A1 (University of Texas, published 2023).
# T1: LAIR1 on reporter cells (UniProt Q6GTX8 22-165, limits assumed)
# T1 sequence (looked up): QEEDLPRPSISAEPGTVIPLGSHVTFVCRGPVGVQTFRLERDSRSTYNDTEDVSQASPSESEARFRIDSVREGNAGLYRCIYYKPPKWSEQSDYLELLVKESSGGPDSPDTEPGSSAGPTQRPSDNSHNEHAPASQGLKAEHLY
# B1: B2-19 (antibody, V domains shown)
# VH: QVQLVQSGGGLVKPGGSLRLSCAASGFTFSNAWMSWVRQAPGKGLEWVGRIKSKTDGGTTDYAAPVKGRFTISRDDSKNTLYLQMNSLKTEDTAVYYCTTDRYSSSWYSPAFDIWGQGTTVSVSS
# VL: QPVLTQPPSVSEAPRQRVTISCSGSSSNIGNNVVNWYQQLPGKAPKLLIYYDDLLPSGVSDRFSGSKSGTSASLAISGLQSEDEADYYCATWDDSLNGPVFGGGTKLTVL
# notes: also called B2-19_HC; B2-19_LC
# B2: B2-15 (antibody, V domains shown)
# VH: EVQLVQSGAEVKKSGASVKVSCKSSGYTFTNYGISWVRQAPGQGLEWMGWISGDAGDTKFAQKFQGRVTMTTDTSTTTTYMELRSLRSDDTAVYYCARDGEYIPMFRGFDNYYGLDVWGQGTLVSVSS
# VL: QSVLTQPPSASATPGQRVTISCSGRNANIGSNPVNWYQQLPGTAPRLVMYSNNQRPSGVPDRFSGSKSGTSASLAISGLQSEDEADYYCEGWDDSLNGYVFGTGTKVTVL
# notes: also called B-15; B2-15_HC
# B3: B2-16 (antibody, V domains shown)
# VH: QVQLVQSGAEVKKPGSSVKVSCKASGGTFSSYAISWVRQAPGQGLEWMGGIIPIFGTANYAQKFQGRVTITADESTSTAYMELSSLRSEDTAVYYCASGIIPDNPYGMDVWGQGTMVSVSS
# VL: DIVMTQSPLSLPVTLGQPASISCTSSQSLVYSDGNTYLNWFHQRPGQSPRRLFYKVSNRASGVPDRFSGSGSGTDFTLKISRVEAEDLGVYYCMQGTHWPVTFGQGTRLEIK
# notes: also called B2-16_HC; B2-16_LC
# B4: B2-7 (antibody, V domains shown)
# VH: EVQLVESGGGVVQPGRSLRLSCAASGFTISSYGMHWVRQAPGKGLEWVAVISYDGSNKYYADSVKGRFTISRDNSKNTLYLQMNSLRVEDTAVYYCAKDLLLRYFDWSPKYYYNGMDVWGQGTMVTVSS
# VL: QSVLTQPPSVSVAPGKTARITCGGNNIGSKSVHWYQQKPGQAPVLVVYDDSDRPSGIPERFSGSNSGNTATLTISRVEAGDEADYYCQVWDSSSDHPGVFGTGTKVTVL
# notes: also called B2-7_HC; B2-7_LC
# Biological target: T2, full length human LILRB2 stably expressed on HEK293 cells (human, UniProt Q8N423 22-597)
# T2 construct: whole, on cells; also called HEK293_LILRB2
# Test: flow cytometry, HEK293 cells expressing full length human LILRB2
# Protocol: FIG. 31. Binding of LILRB2 antibodies on HEK293 stably expressing full length human LILRB2. Fifty thousand cells were incubated with a dilution series (40-0.0006 μg/mL) of LILRB2 antibodies in a final volume of 100 μL. Bound antibodies were detected with anti-human Fc-specific secondary antibody conjugated to AF647. All incubations were performed for 30 minutes at 4° C. Data shown is averaged geometric mean fluorescence intensity ± standard error of the mean (s.e.m.) after sample acquisition (in duplicates) in flow cytometer (BD FACS Celesta) and subtracted by background fluorescence of samples incubated with secondary antibody only.
row,EC50 [µg/mL],Binder
1,0.208,B1
2,0.101,B2
3,0.277,B3
4,0.212,B4

# Biological target: T3, LILRB2 chimeric receptor on LILRB2 reporter cells (extracellular domain of LILRB2 fused with … (UniProt Q8N423 22-460))
# T3 construct: extracellular domain;domain: transmembrane/intracellular domains; associates with DAP12; also called LILRB2-expressing reporter cells
# Test: flow cytometry on LILRB2 reporter cells, APC anti-human IgG
# Excerpt: FIGS. 1A-C. Screening specific monoclonal antibodies for LILRB2. […] Binding of monoclonal antibodies was screened using flow cytometer on LILRB2 reporter cells. Bound antibodies were detected with Allophycocyanin (APC)-labeled goat anti-human IgG secondary antibody. (FIG. 1B) Quantification of binding ability of monoclonal antibodies to LILRB2 reporter cells.
# Screening specific monoclonal antibodies for LILRB2. The inventors employed a stable reporter cell system to detect the binding ability of selected monoclonal antibodies to LILRB2. In this chimeric receptor reporter system, the extracellular domain (ECD) of LILRB2 is fused with transmembrane/intracellular domains of PILRb that associates with the adaptor protein DAP12 containing an immunoreceptor tyrosine-based activation motif. 27 monoclonal antibodies were screened. The LILRB2 reporter cells were incubated with selected monoclonal antibody, then labeled with (APC) goat anti-human IgG secondary antibody. […] The inventors generated LILRBAs and LILRBs reporters stably transduced with each receptor's extracellular domain (ECD).
row,percent of LILRB2 reporter cells labeled [%],Binder
1,> 95,B1
2,> 95,B2
3,> 95,B3
4,> 95,B4

# Biological target: T4, LILRA2
# T4 construct: also called LILRA2 reporter cells; not shown: transmembrane/intracellular domains of PILRb, the display part of the chimeric reporter receptor
# Test: flow cytometry, reporter cells
# Protocol: (§1) FIG. 29. Binding of LILRB2 antibodies on reporter cell line expressing ectodomain of LILR family proteins on cell surface. Bound antibodies were detected with anti-human Fc-specific secondary antibody (2nd Ab) conjugated to AF647. […] All incubations were performed for 30 minutes at 4° C. Data shown is mean fluorescence intensity after sample acquisition in flow cytometer.
# T4 sequence (chain, as listed by the source limits assumed): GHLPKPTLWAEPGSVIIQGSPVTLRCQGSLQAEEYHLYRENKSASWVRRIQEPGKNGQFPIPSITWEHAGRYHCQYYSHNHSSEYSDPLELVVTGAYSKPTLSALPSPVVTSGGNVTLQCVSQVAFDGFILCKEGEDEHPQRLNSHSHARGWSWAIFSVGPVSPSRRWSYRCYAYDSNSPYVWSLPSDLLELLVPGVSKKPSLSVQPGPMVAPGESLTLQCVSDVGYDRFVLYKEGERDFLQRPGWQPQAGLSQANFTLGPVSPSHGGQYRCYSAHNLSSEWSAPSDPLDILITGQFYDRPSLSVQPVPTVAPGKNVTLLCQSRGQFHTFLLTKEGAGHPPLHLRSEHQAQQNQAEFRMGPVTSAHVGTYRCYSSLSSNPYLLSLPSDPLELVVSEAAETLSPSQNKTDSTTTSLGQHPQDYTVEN
MFI,binding result,Binder
10,no binding,B1
10,no binding,B2
10,no binding,B3
10,no binding,B4

# Biological target: T5, LILRB3
# T5 construct: also called LILRB3 reporter cells; not shown: transmembrane/intracellular domains of PILRb, the display part of the chimeric reporter receptor
# Test: flow cytometry, reporter cells
# Protocol: as §1
MFI,binding result,Binder
9,no binding,B1
9,no binding,B2
10,no binding,B3
11,no binding,B4

# Biological target: T6, LILRB1
# T6 construct: also called LILRB1 reporter cells; not shown: transmembrane/intracellular domains of PILRb, the display part of the chimeric reporter receptor
# Test: flow cytometry, reporter cells
# Protocol: as §1
# T6 sequence (chain, as listed by the source limits assumed): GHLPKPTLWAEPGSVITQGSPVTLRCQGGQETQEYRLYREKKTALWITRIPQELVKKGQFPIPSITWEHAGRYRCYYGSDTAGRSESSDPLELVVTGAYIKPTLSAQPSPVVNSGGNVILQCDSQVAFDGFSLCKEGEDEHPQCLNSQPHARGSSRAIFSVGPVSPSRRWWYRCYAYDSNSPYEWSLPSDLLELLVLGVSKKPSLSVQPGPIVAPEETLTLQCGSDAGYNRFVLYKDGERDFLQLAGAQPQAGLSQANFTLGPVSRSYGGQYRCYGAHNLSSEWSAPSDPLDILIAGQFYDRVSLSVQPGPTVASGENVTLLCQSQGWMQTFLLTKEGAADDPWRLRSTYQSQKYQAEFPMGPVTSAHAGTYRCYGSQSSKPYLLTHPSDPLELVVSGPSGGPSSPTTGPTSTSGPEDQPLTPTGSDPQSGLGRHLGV
MFI,binding result,Binder
10,no binding,B1
9,no binding,B2
10,no binding,B3
10,no binding,B4

# Biological target: T7, LILRB5
# T7 construct: also called LILRB5 reporter cells; not shown: transmembrane/intracellular domains of PILRb, the display part of the chimeric reporter receptor
# Test: flow cytometry, reporter cells
# Protocol: as §1
# T7 sequence (chain, as listed by the source limits assumed): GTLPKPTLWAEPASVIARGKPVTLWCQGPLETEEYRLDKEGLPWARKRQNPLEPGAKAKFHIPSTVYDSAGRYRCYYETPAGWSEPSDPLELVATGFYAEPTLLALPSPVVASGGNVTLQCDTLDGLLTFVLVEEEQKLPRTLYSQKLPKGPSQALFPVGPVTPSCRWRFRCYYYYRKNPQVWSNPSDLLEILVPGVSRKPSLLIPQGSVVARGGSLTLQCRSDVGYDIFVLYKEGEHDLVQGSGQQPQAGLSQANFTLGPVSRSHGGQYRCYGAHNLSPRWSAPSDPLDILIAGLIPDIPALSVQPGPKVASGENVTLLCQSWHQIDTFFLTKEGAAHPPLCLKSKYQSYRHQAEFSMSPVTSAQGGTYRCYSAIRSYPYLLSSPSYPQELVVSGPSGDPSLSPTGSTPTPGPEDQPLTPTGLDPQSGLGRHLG
MFI,binding result,Binder
11,no binding,B1
11,no binding,B2
11,no binding,B3
11,no binding,B4

# Biological target: T8, LILRA4
# T8 construct: also called LILRA4 reporter cells
# Test: flow cytometry, reporter cells
# Protocol: as §1
# T8 sequence (chain, as listed by the source limits assumed): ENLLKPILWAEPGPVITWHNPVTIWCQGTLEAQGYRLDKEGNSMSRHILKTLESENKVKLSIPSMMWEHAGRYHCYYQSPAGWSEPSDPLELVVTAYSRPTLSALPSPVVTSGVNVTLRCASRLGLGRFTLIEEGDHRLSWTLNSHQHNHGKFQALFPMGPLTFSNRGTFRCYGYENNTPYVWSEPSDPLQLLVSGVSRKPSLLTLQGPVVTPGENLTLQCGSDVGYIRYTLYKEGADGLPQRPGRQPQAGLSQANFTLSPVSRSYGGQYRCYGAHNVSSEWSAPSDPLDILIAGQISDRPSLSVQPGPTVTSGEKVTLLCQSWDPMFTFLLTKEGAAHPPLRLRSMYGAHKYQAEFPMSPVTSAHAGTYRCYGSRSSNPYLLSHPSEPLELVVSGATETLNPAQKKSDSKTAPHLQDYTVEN
MFI,binding result,Binder
10,no binding,B1
9,no binding,B2
10,no binding,B3
10,no binding,B4

# Biological target: T1, LAIR1 on reporter cells
# Test: flow cytometry, reporter cells
# Protocol: as §1
MFI,binding result,Binder
22,no binding,B1
22,no binding,B2
24,no binding,B3
23,no binding,B4

# Biological target: T9, LILRA3
# T9 construct: also called LILRA3 reporter cells; not shown: transmembrane/intracellular domains of PILRb, the display part of the chimeric reporter receptor
# Test: flow cytometry, reporter cells
# Protocol: as §1
# T9 sequence (chain, as listed by the source limits assumed): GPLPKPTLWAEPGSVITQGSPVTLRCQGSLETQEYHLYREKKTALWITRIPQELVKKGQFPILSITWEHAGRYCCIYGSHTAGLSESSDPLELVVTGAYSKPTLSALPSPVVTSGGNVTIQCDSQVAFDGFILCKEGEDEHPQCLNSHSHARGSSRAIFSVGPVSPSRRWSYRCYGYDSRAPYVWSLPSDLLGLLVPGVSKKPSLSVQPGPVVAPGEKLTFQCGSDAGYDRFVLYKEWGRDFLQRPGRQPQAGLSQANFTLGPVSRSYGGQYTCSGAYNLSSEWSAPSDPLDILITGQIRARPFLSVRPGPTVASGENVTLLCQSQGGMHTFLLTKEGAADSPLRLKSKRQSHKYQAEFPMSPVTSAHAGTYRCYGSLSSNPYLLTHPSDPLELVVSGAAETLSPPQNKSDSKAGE
MFI,binding result,Binder
10,no binding,B1
10,no binding,B2
10,no binding,B3
10,no binding,B4

# Biological target: T3, LILRB2 chimeric receptor on LILRB2 …
# Test: flow cytometry, reporter cells
# Protocol: as §1
row,MFI,Binder
1,1280,B1
2,910,B2
3,940,B3
4,1160,B4

# Biological target: T10, LILRA6
# T10 construct: also called LILRA6 reporter cells
# Test: flow cytometry, reporter cells
# Protocol: as §1
# T10 sequence (chain, as listed by the source limits assumed): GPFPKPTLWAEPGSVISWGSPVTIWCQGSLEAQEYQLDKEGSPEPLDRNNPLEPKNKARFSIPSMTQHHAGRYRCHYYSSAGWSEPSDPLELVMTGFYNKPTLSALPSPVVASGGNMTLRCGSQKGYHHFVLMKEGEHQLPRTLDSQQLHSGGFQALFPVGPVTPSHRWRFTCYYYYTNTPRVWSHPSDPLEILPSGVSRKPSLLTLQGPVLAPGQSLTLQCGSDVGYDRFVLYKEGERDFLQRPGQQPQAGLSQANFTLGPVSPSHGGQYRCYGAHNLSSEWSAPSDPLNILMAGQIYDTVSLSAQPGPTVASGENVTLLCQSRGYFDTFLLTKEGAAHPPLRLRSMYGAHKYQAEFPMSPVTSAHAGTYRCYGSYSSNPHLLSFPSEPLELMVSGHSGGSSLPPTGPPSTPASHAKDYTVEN
MFI,binding result,Binder
11,no binding,B1
10,no binding,B2
12,no binding,B3
11,no binding,B4

# Biological target: T11, LILRA1 on reporter cells (extracellular domain) (UniProt O75019 17-461, limits assumed)
# T11 construct: extracellular domain
# Test: flow cytometry, reporter cells
# Protocol: as §1
# T11 sequence (O75019 17-461 limits assumed): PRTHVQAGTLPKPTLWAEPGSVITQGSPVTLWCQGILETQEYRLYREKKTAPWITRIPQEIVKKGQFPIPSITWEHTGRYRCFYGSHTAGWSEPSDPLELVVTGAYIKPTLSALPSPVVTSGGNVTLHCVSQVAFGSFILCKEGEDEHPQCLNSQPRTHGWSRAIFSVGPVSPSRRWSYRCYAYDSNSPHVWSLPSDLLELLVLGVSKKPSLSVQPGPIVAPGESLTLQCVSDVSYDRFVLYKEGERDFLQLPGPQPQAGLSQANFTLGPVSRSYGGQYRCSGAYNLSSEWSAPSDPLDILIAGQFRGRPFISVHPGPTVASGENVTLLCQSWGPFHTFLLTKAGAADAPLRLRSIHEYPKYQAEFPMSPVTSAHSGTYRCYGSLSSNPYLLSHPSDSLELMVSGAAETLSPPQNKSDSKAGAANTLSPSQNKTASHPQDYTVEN
MFI,binding result,Binder
11,no binding,B1
10,no binding,B2
12,no binding,B3
12,no binding,B4

# Biological target: T12, LILRA5
# T12 construct: also called LILRA5 reporter cells
# Test: flow cytometry, reporter cells
# Protocol: as §1
# T12 sequence (chain, as listed by the source limits assumed): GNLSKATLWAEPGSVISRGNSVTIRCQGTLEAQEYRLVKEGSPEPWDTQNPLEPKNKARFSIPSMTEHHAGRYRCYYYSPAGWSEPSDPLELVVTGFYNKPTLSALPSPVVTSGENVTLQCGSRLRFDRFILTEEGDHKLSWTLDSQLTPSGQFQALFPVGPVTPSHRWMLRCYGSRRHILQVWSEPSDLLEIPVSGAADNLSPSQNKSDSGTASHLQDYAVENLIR
MFI,binding result,Binder
11,no binding,B1
11,no binding,B2
12,no binding,B3
11,no binding,B4

# Biological target: T13, LILRB4
# T13 construct: also called LILRB4 reporter cells; not shown: transmembrane/intracellular domains of PILRb, the display part of the chimeric reporter receptor
# Test: flow cytometry, reporter cells
# Protocol: as §1
MFI,binding result,Binder
14,no binding,B1
14,no binding,B2
14,no binding,B3
15,no binding,B4

# Biological target: T14, LILRB2 (antigen in solution, Octet RED 96) (UniProt Q8N423 22-460, limits assumed)
# T14 construct: also called LILRB2 solution
# Test: BLI (Octet RED 96), antibody on protein A biosensor, LILRB2 in solution
# Protocol: Affinity measurement of blocking antibodies. Affinities of the 5 blocking antibodies were measured on Octet RED 96 system.
Kd [nM],koff [s⁻¹],kon [M⁻¹ s⁻¹],Binder
1.84,0.00046,250000,B1
18.9,0.00565,299000,B2
7.45,0.0009,121000,B3
15.2,0.00305,200000,B4

# Biological target: T2, full length human LILRB2 stably …
# Test: competition flow cytometry, inhibition of SEMA4A-hFc-AF647 binding to HEK293_LILRB2 cells
# Protocol: FIG. 34. […] Incubation was performed for 30 minutes at 4° C. Data shown is averaged geometric mean of fluorescence intensity ± standard error of the mean (s.e.m.) from duplicate samples acquired in a flow cytometer (BD FACS Celesta).
row,IC50 [µg/mL],Binder
1,2.12,B1
2,0.482,B2
3,3.19,B3
4,2.66,B4
